# Measurements: IntAct's records for PubMed 19850925
# B1: Complement factor H (Homo sapiens), P08603 (parent)
# chain: MRLLAKIICLMLWAICVAEDCNELPPRRNTEILTGSWSDQTYPEGTQAIYKCRPGYRSLGNVIMVCRKGEWVALNPLRKCQKRPCGHPGDTPFGTFTLTGGNVFEYGVKAVYTCNEGYQLLGEINYRECDTDGWTNDIPICEVVKCLPVTAPENGKIVSSAMEPDREYHFGQAVRFVCNSGYKIEGDEEMHCSDDGFWSKEKPKCVEISCKSPDVINGSPISQKIIYKENERFQYKCNMGYEYSERGDAVCTESGWRPLPSCEEKSCDNPYIPNGDYSPLRIKHRTGDEITYQCRNGFYPATRGNTAKCTSTGWIPAPRCTLKPCDYPDIKHGGLYHENMRRPYFPVAVGKYYSYYCDEHFETPSGSYWDHIHCTQDGWSPAVPCLRKCYFPYLENGYNQNYGRKFVQGKSIDVACHPGYALPKAQTTVTCMENGWSPTPRCIRVKTCSKSSIDIENGFISESQYTYALKEKAKYQCKLGYVTADGETSGSITCGKDGWSAQPTCIKSCDIPVFMNARTKNDFTWFKLNDTLDYECHDGYESNTGSTTGSIVCGYNGWSDLPICYERECELPKIDVHLVPDRKKDQYKVGEVLKFSCKPGFTIVGPNSVQCYHFGLSPDLPICKEQVQSCGPPPELLNGNVKEKTKEEYGHSEVVEYYCNPRFLMKGPNKIQCVDGEWTTLPVCIVEESTCGDIPELEHGWAQLSSPPYYYGDSVEFNCSESFTMIGHRSITCIHGVWTQLPQCVAIDKLKKCKSSNLIILEEHLKNKKEFDHNSNIRYRCRGKEGWIHTVCINGRWDPEVNCSMAQIQLCPPPPQIPNSHNMTTTLNYRDGEKVSVLCQENYLIQEGEEITCKDGRWQSIPLCVEKIPCSQPPQIEHGTINSSRSSQESYAHGTKLSYTCEGGFRISEENETTCYMGKWSSPPQCEGLPCKSPPEISHGVVAHMSDSYQYGEEVTYKCFEGFGIDGPAIAKCLGEKWSHPPSCIKTDCLSLPSFENAIPMGEKKDVYKAGEQVTYTCATYYKMDGASNVTCINSRWTGRPTCRDTSCVNPPTVQNAYIVSRQMSKYPSGERVRYQCRSPYEMFGDEEVMCLNGNWTEPPQCKDSTGKCGPPPPIDNGDITSFPLSVYAPASSVEYQCQNLYQLEGNKRITCRNGQWSEPPKCLHPCVISREIMENYNIALRWTAKQKLYSRTGESVEFVCKRGYRLSSRSHTLRTTCWDGKLEYPTCAKR
# partner: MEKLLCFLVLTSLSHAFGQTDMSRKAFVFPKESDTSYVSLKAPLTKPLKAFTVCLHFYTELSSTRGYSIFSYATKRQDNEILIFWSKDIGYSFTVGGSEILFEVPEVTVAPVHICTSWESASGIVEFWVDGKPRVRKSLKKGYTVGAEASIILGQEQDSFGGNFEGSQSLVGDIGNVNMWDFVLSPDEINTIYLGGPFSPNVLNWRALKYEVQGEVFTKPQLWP
# Variants of: B1
# Conditions: with crp_human CRP
row,effect of a mutation on the interaction,Variant
1,decreasing interaction strength,Y402H
